Data from patent publication US20210395344A1 (TWIST BIOSCIENCE, published 2021).
Read-outs that look alike come from different tables or passages of the source.

B1: 1-17 (antibody, V domains shown)
VH: EVQLLESGGGLVQPGGSLRLSCAASGFTFSSYAMYWVRQAPGKGLEWVSAISGSAGSTYYADSVKGRFTISRDNSKNTLYLQMNSLRAEDTAVYYCARDTNDFWSGYSIFDPWGQGTLVTVSS
VL: QSALTQPASVSGSPGQSITISCTGTSSDIGSYNLVSWYQQHPGKAPKLMIYEGTKRPSGVSNRFSGSKSGNTASLTISGLQAEDEADYYCCSYAGSRTYVFGGGTKLTVL
notes: also called variant 1-17
B2: 1-42 (antibody, V domains shown)
VH: EVQLLESGGGLVQPGGSLRLSCAASGVTFSSYAMSWVRQAPGKGLEWVSAITGSGGSTYYADSVKGRFTISRDNSKNTLYLQMNSLRAEDTAVYYCAKHGSGTIFGVVIAKYYFDYWGQGTLVTVSS
VL: QSALTQPASVSGSPGQSITISCTGTSSDVGRYNLVSWYQQHPGKAPKLMIYEGGKRPSGVSNRFSGSKSGNTASLTISGLQAEDEADYYCCSYASSSTLVFGGGTKLTVL
notes: also called variant 1-42
B3: 4-147 (antibody, V domains shown)
VH: EVQLVESGGGLVQPGGSLRLSCAASGGTFSVYAMGWFRQAPGKEREGVAAISMSGDDAAYADSVKGRFTISADNSKNTAYLQMNSLKPEDTAVYYCAKISKDDGGKPRGAFFDSWGQGTLVTVSS
B4: 1-47 (antibody, V domains shown)
VH: EVQLLESGGGLVQPGGSLRLSCAASGFTFSSQAMSWVRQAPGKGLEWVSAISGSGGGTYYADSVKGRFTISRDNSKNTLYLQMNSLRAEDTAVYYCAKDRRFGEFDPWGQGTLVTVSS
VL: QSALTQPASVSGSPGQSITISCTGTSSGVGSYNLVSWYQQHPGKAPKLMIYEGIKRPSGVSNRFSGSKSGNTASLTISGLQAEDEADYYCCSYAGSSSFVVFGGGTKLTVL
notes: also called variant 1-47
B5: 1-10 (antibody, V domains shown)
VH: EVQLLESGGGLVQPGGSLRLSCAASGFTFSSYDMSWVRQAPGKGLEWVSVISGSGGSTYYADSVKGRFTISRDNSKNTLYLQMNSLRAEDTAVYYCAKGPLVGWYFDLWGQGTLVTVSS
VL: QSALTQPASVSGSPGQSITISCTGTSSNVGSYNLVSWYQQHPGKAPKLMIYEGTKRPSGVSNRFSGSKSGNTASLTISGLQAEDEADYYCCSYAGSSSFVVFGGGTKLTVL
notes: also called variant 1-10
B6: 1-28 (antibody, V domains shown)
VH: EVQLLESGGGLVQPGGSLRLSCAASGFTFSSYGMSWVRQAPGKGLEWVSAISGSGGGTYYADSVKGRFTISRDNSKNTLYLQMNSLRAEDTAVYYCASSSSWQFDYWGQGTLVTVSS
VL: QSALTQPASVSGSPGQSITISCTGTSSGVGSYNLVSWYQQHPGKAPKLMIYEGSQRPSGVSNRFSGSKSGNTASLTISGLQAEDEADYYCCSYAGSSTHYVFGGGTKLTVL
B7: 1-7 (antibody, V domains shown)
VH: EVQLLESGGGLVQPGGSLRLSCAASGFTFSSYDMSWVRQAPGKGLEWVSVISGSGGSTYYADSVKGRFTISRDNSKNTLYLQMNSLRAEDTAVYYCAKGPLVGWYFDLWGQGTLVTVSS
VL: QSALTQPASVSGSPGQSITISCTGTSSDFGSYNLVSWYQQHPGKAPKLMIYEGNKRPSGVSNRFSGSKSGNTASLTISGLQAEDEADYYCCSYAGSSTFVVFGGGTKLTVL
notes: also called variant 1-7
B8: 1-3 (antibody, V domains shown)
VH: EVQLLESGGGLVQPGGSLRLSCAASGFTFSSQAMSWVRQAPGKGLEWVSAISGSGGGTYYADSVKGRFTISRDNSKNTLYLQMNSLRAEDTAVYYCAKDRRFGEFDPWGQGTLVTVSS
VL: QSALTQPASVSGSPGQSITISCTGISSDVGSYNLVSWYQQHPGKAPKLMIYEGTKRPSGVSNRFSGSKSGNTASLTISGLQAEDEADYYCCSYAGSSSFVVFGGGTKLTVL
B9: 1-4 (antibody, V domains shown)
VH: EVQLLESGGGLVQPGGSLRLSCAASGFTFSSQAMSWVRQAPGKGLEWVSAISGSGGGTYYADSVKGRFTISRDNSKNTLYLQMNSLRAEDTAVYYCAKDRRFGEFDPWGQGTLVTVSS
VL: QSALTQPASVSGSPGQSITISCTGTSSDVGTYNLVSWYQQHPGKAPKLMIYEGSQRPSGVSNRFSGSKSGNTASLTISGLQAEDEADYYCCSYAGSSSFVVFGGGTKLTVL
B10: 1-31 (antibody, V domains shown)
VH: EVQLLESGGGLVQPGGSLRLSCAASGFTFSSYAMNWVRQAPGKGLEWVSAISGSGGSTFYADSVKGRFTISRDNSKNTLYLQMNSLRAEDTAVYYCTRPPYGDYGDYWGQGTLVTVSS
VL: QSALTQPASVSGSPGQSITISCTGTSSDVGKYNLVSWYQQHPGKAPKLMIYEGSQRPSGVSNRFSGSKSGNTASLTISGLQAEDEADYYCCSYAGSRTPVVFGGGTKLTVL
B11: 1-23 (antibody, V domains shown)
VH: EVQLLESGGGLVQPGGSLRLSCAASGFTFSSYAISWVRQAPGKGLEWVSIISGSGGSTYYADSVKGRFTISRDNSKNTLYLQMNSLRAEDTAVYYCAREGYRDYLWYFDLWGQGTLVTVSS
VL: QSALTQPASVSGSPGQSITISCTGTSNDVGSYNLVSWYQQHPGKAPKLMIYEGNKRPSGVSNRFSGSKSGNTASLTISGLQAEDEADYYCCSYAGSYTVFGGGTKLTVL
notes: also called variant 1-23
B12: 1-24 (antibody, V domains shown)
VH: EVQLLESGGGLVQPGGSLRLSCAASGFTFSSYAMNWVRQAPGKGLEWVSIISGSGGSTYYADSVKGRFTISRDNSKNTLYLQMNSLRAEDTAVYYCAREGYRDYLWYFDLWGQGTLVTVSS
VL: QSALTQPASVSGSPGQSITISCTGTSSDVGYYNLVSWYQQHPGKAPKLMIYEGNKRPSGVSNRFSGSKSGNTASLTISGLQAEDEADYYCCSYAGGSVVFGGGTKLTVL
notes: also called variant 1-24
B13: 4-124 (antibody, V domains shown)
VH: EVQLVESGGGLVQPGGSLRLSCAASGNIFTRNVMGWFRQAPGKEREFVAAITSSGSTNYADSVKGRFTISADNSKNTAYLQMNSLKPEDTAVYYCARPSSDLQGGVDYWGQGTLVTVSS
B14: 4-139 (antibody, V domains shown)
VH: EVQLVESGGGLVQPGGSLRLSCAASGGGTFGSYAMGWFRQAPGKEREFVAAISIASGASGGTTNYADSVKGRFTISADNSKNTAYLQMNSLKPEDTAVYYCATTMNPNPRWGQGTLVTVSS

Key:
[1] = molecular target: T1, COVID S1 RBD Fc fusion (Antigen 1) (SARS-CoV-2, UniProt P0DTC2 319-541); test: phage ELISA
T1 construct: domain: RBD

S1-Fc [2] = molecular target: T2, S1-Fc (SARS-CoV-2, UniProt P0DTC2 16-685); test: phage ELISA
[3] = molecular target: T3, COVID S1 RBM Fc fusion (Antigen 2) (SARS-CoV-2, UniProt P0DTC2 437-508); test: phage ELISA
T3 construct: domain: RBM

[4] = molecular target: T1, COVID S1 RBD Fc fusion (Antigen 1); test: phage ELISA; remark: listed apart in the source
S1-Fc [5] = molecular target: T2, S1-Fc; test: phage ELISA; remark: listed apart in the source
[6] = molecular target: T3, COVID S1 RBM Fc fusion (Antigen 2); test: phage ELISA; remark: listed apart in the source
[7] = molecular target: T4, SARS-CoV-2 S1 (antigen of the Carterra SPR kinetics) (SARS-CoV-2, UniProt P0DTC2 16-685); test: Carterra SPR
[8] = molecular target: T4, SARS-CoV-2 S1 (antigen of the Carterra …); test: Carterra SPR; remark: listed apart in the source
human ACE2 = human ACE2 (human, UniProt Q9BYF1 18-740)
[9] = molecular target: T5, SARS-CoV-2 Spike Glycoprotein S1 (subunit 1) (SARS-CoV-2, UniProt P0DTC2 16-685); test: ELISA binding titration
T5 construct: also called S1 Monomer; SARS-CoV-2 S1

[10] = molecular target: T5, SARS-CoV-2 Spike Glycoprotein S1 …; test: screening phage ELISA, mean
[11] = molecular target: T5, SARS-CoV-2 Spike Glycoprotein S1 …; test: screening phage ELISA, mean; remark: listed apart in the source
[12] = molecular target: T5, SARS-CoV-2 Spike Glycoprotein S1 …; test: column DC/S1 (format not explained)
[13] = molecular target: T5, SARS-CoV-2 Spike Glycoprotein S1 …; test: column Fc/S1 (format not explained)
[14] = molecular target: T5, SARS-CoV-2 Spike Glycoprotein S1 …; test: column Inhibitor IC50 (assay not explained)

Chain of human ACE2 (Q9BYF1 18-740 limits assumed): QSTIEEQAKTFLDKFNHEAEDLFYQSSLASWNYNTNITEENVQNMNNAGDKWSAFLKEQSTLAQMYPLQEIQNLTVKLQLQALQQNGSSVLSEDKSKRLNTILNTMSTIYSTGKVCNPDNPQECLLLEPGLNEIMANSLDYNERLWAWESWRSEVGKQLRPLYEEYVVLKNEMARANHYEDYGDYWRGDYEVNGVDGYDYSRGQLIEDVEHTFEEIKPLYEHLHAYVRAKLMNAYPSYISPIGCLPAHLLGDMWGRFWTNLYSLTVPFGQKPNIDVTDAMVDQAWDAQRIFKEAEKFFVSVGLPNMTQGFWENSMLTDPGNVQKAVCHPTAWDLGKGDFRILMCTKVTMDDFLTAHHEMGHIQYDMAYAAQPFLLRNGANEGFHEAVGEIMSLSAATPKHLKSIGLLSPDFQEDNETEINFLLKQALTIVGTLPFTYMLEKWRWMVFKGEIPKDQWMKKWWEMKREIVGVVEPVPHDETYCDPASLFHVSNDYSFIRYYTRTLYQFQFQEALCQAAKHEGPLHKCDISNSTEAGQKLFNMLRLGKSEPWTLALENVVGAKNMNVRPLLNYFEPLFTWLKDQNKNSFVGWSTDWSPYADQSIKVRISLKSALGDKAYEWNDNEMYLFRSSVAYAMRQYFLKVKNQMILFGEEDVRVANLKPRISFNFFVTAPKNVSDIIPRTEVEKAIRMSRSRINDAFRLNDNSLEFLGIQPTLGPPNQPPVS

| Binder | ELISA fold over background [1] | ELISA fold over background (S1-Fc [2]) | ELISA fold over background [3] | ELISA fold over background [4] | ELISA fold over background (S1-Fc [5]) | ELISA fold over background [6] | kon [7] | Kd [8] | kon [8] | IC50 (human ACE2) | koff [7] | koff [8] | EC50 [9] | ELISA (Avg) [10] | ELISA (Avg) [11] | Kd [12] | Kd [13] | IC50 [14] |
| --- | --- | --- | --- | --- | --- | --- | --- | --- | --- | --- | --- | --- | --- | --- | --- | --- | --- | --- |
| B1 | 20.1 fold over background | 1.6 fold over background | 1.3 fold over background | 20.1 fold over background | 1.6 fold over background | 1.3 fold over background | 3.92e+08 M⁻¹ s⁻¹ | 67.1 nM | 3.92e+08 M⁻¹ s⁻¹ |  |  |  |  |  |  |  |  |  |
| B2 | 20.8 fold over background | 1.4 fold over background | 1 fold over background | 20.8 fold over background | 1.4 fold over background | 1 fold over background | 9.1e+08 M⁻¹ s⁻¹ | 113 nM | 9.1e+08 M⁻¹ s⁻¹ |  |  |  |  |  |  |  |  |  |
| B3 |  |  |  |  |  |  |  |  |  | 68.3 nM |  |  |  |  |  |  |  |  |
| B4 | 5.5 fold over background | 1.2 fold over background | 0.9 fold over background | 5.5 fold over background | 1.2 fold over background | 0.9 fold over background | 6320 M⁻¹ s⁻¹ | 38000 nM | 6320 M⁻¹ s⁻¹ |  | 0.24 s⁻¹ | 0.24 s⁻¹ |  |  |  |  |  |  |
| B5 | 17.4 fold over background | 1.3 fold over background | 1.1 fold over background | 17.4 fold over background | 1.3 fold over background | 1.1 fold over background | 1.04e+06 M⁻¹ s⁻¹ | 142 nM | 1.04e+06 M⁻¹ s⁻¹ |  | 0.147 s⁻¹ | 0.147 s⁻¹ |  |  |  |  |  |  |
| B6 |  |  |  |  |  |  |  |  |  |  |  |  | 2.28 nM | 17.7 | 17.7 | 520 nM | 3240 nM |  |
| B7 | 3.3 fold over background | 1.7 fold over background | 1.6 fold over background | 3.3 fold over background | 1.7 fold over background | 1.6 fold over background | 1.34e+06 M⁻¹ s⁻¹ | 127 nM | 1.34e+06 M⁻¹ s⁻¹ |  | 0.17 s⁻¹ | 0.17 s⁻¹ |  |  |  |  |  |  |
| B8 |  |  |  |  |  |  |  |  |  |  |  |  | 0.133 nM | 23.9 | 23.9 | 253 nM |  | 15.7 nM |
| B9 |  |  |  |  |  |  |  |  |  |  |  |  | 2.56 nM | 20.6 | 20.6 | 659 nM | 25.5 nM |  |
| B10 |  |  |  |  |  |  |  |  |  |  |  |  | 0.203 nM | 20.7 | 20.7 | 14.4 nM | 17.5 nM | 9.2 nM |
| B11 | 3.6 fold over background | 1.6 fold over background | 1.6 fold over background | 3.6 fold over background | 1.6 fold over background | 1.6 fold over background | 506000 M⁻¹ s⁻¹ | 315 nM | 506000 M⁻¹ s⁻¹ |  | 0.159 s⁻¹ | 0.159 s⁻¹ |  |  |  |  |  |  |
| B12 | 11 fold over background | 1.1 fold over background | 1.3 fold over background | 11 fold over background | 1.1 fold over background | 1.3 fold over background | 1.94e+08 M⁻¹ s⁻¹ | 75.5 nM | 1.94e+08 M⁻¹ s⁻¹ |  |  |  |  |  |  |  |  |  |
| B13 |  |  |  |  |  |  |  |  |  | 54.4 nM |  |  |  |  |  |  |  |  |
| B14 |  |  |  |  |  |  |  |  |  | 20.2 nM |  |  |  |  |  |  |  |  |
